Experimental data from paper doi:10.1101/708180.

Legend:
[1] = molecular target: cHSP27, isolated α-crystallin domain of HSP27 (residues 84-171), oxidized disulfide-linked dimer (human) (UniProt P04792); experiment: NMR titration
[2] = molecular target: cHSP27, isolated α-crystallin domain of HSP27 (residues 84-171), oxidized disulfide-linked dimer (human) (UniProt P04792); experiment: NMR titration + other: NMR CPMG relaxation dispersion
[3] = molecular target: cHSP27, isolated α-crystallin domain of HSP27 (residues 84-171), oxidized disulfide-linked dimer (human) (UniProt P04792); experiment: NMR CPMG relaxation dispersion

Chain of C-terminal peptide of HSP27 bearing the P182L mutation (ILV motif) (P04792 whole entry P182L, looked up, tested part not stated): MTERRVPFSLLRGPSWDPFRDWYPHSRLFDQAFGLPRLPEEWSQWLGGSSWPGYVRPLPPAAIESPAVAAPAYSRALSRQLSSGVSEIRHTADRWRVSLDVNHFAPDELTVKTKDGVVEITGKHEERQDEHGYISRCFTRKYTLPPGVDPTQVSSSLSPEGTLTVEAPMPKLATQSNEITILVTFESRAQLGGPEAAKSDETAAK
Chain of C-terminal peptide of HSP27 containing the WT IxI/V (IPV) motif (P04792 whole entry, looked up, tested part not stated): as the sequence (P04792 whole entry P182L, looked up, tested part not stated) above, with L182P counted along it
Chain of cHSP27, isolated α-crystallin domain of HSP27 (residues 84-171), oxidized disulfide-linked dimer (human) (P04792 84-171): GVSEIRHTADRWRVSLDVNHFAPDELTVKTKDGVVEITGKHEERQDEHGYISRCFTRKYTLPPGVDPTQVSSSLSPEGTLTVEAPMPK

Kd [1] [mM] | fold difference of kon (from CSP Kd and CPMG koff) against the WT peptide [2] [fold] | Kd [3] [mM] | koff [3] [s⁻¹] | kon [3] [M⁻¹ s⁻¹] | Substance
1.2 | 10 | 10.2 | 840 | 82600 | C-terminal peptide of HSP27 bearing the P182L mutation (ILV motif) (from UniProt P04792 179-186)
0.125 |  | 2.51 | 759 | 302000 | C-terminal peptide of HSP27 containing the WT IxI/V (IPV) motif (from UniProt P04792 179-186)
